Measurements as given in patent US20080214468A1 (UNIVERSITY OF VIRGINIA PATENT FOUNDATION, published 2008).
Where no end group is shown, it is not given here.

Target: Vimentin from bovine aortic endothelial cells (bovine, UniProt P48616 2-466)
Test: affinity chromatography of BAEC cell fractions on immobilized peptide
Method: Membrane and cytosol fractions from human bone marrow endothelial cells and bovine aortic endothelial cells were prepared and used to identify the components from within these fractions that bind to the peptides using affinity chromatography). […] Cell surface nucleolin is present at higher concentrations in actively dividing cells and is down regulated in cells when they become quiescent. Nucleolin is the apparent cell surface receptor of E-coli intimin-gamma. Cell bound intimin has been proposed to trigger a host cell response similar to the extension of filipodia when cells bind to laminin. […] Table 3 provides a summary of peptide-binding partners (putative receptors) identified by affinity chromatography of cell lysates.

Chain of Vimentin from bovine aortic endothelial cells (P48616 2-466 limits assumed): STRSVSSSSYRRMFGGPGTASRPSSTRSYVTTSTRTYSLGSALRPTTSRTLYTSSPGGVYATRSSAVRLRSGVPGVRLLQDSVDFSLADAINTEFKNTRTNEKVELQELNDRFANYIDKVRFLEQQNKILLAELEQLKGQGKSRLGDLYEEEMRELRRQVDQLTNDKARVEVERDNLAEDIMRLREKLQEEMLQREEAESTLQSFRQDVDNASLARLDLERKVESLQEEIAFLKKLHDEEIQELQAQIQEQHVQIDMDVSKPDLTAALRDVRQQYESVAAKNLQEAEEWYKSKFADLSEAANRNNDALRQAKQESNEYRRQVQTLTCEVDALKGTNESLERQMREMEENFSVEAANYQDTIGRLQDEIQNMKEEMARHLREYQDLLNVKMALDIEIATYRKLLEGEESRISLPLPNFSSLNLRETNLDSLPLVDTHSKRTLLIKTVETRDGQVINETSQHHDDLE

Row | binding result | Binder
1 | binds | QRSWTLDSALSMGGGS (also: biotinylated, position not given here, 12-mer with the C-terminal GGGS linker) [peptide L12 (SEQ ID NO:7)]
2 | binds | SYSQMDPPRSLPGGGS (also: biotinylated, position not given here, 12-mer with the C-terminal GGGS linker) [peptide R8 (SEQ ID NO:14)]
